Test system: Escherichia coli TOP10
Experiment: shrunken log2 fold change of peptide-encoding DNA abundance (4.5 h post-induction vs induction); higher = less antimicrobial activity (less host growth inhibition)
Conditions: time post-induction: 4.5 h; library: site-saturation at positions 5, 18, 19, 20
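Also: peptides expressed intracellularly from a pBAD plasmid library in pooled LB shake-flask culture, induced with 0.3% L-arabinose, DNA abundance read by NGS, three biological replicates, DESeq2 with apeglm shrinkage.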

Sequence	shrunken log2 fold change
RRIRGRPPRLPRPRPRPQLVPRP	0.0859
RRIRARPPRLPRPRPRPDWCPRP	0.0911
RRIRRRPPRLPRPRPRPRFTPRP	0.264
RRIRQRPPRLPRPRPRPESGPRP	0.0279
RRIRHRPPRLPRPRPRPELYPRP	-0.215
RRIRVRPPRLPRPRPRPRAMPRP	0.213
RRIRGRPPRLPRPRPRPPYWPRP	0.355
RRIRLRPPRLPRPRPRPYMLPRP	-1.2
RRIRWRPPRLPRPRPRPDYAPRP	-0.0174
RRIRIRPPRLPRPRPRPLDVPRP	-0.0639
RRIRARPPRLPRPRPRPDNVPRP	-0.059
RRIRGRPPRLPRPRPRPERIPRP	-0.0324
RRIRVRPPRLPRPRPRPRDMPRP	-0.0624
RRIRSRPPRLPRPRPRPHAMPRP	-0.376
RRIRARPPRLPRPRPRPPFSPRP	0.137
RRIRQRPPRLPRPRPRPTQFPRP	0.14
RRIRLRPPRLPRPRPRPVPFPRP	0.123
RRIRMRPPRLPRPRPRPKDWPRP	1.43
RRIRVRPPRLPRPRPRPQMPPRP	0.204
RRIRERPPRLPRPRPRPVSMPRP	-0.295
RRIRKRPPRLPRPRPRPLLYPRP	0.0166
RRIRFRPPRLPRPRPRPSDRPRP	-0.853
RRIRGRPPRLPRPRPRPTEQPRP	0.883
RRIRTRPPRLPRPRPRPDMQPRP	1.96
RRIRSRPPRLPRPRPRPHHEPRP	-0.0237

Sequence	shrunken log2 fold change
RRIRSRPPRLPRPRPRPRYDPRP	-0.444
RRIRLRPPRLPRPRPRPKSGPRP	0.143
RRIRFRPPRLPRPRPRPYGGPRP	-0.00865
RRIRSRPPRLPRPRPRPRGMPRP	0.164
RRIRWRPPRLPRPRPRPMSSPRP	0.0453
RRIRRRPPRLPRPRPRPNDHPRP	0.0277
RRIRIRPPRLPRPRPRPRHKPRP	-0.704
RRIRVRPPRLPRPRPRPQVQPRP	-0.208
RRIRARPPRLPRPRPRPQWLPRP	0.144
RRIRDRPPRLPRPRPRPCTFPRP	-0.0767
RRIRFRPPRLPRPRPRPSADPRP	0.157
RRIRERPPRLPRPRPRPPFYPRP	-0.367
RRIRCRPPRLPRPRPRPYFEPRP	-0.572
RRIRKRPPRLPRPRPRPMYFPRP	-0.0354
RRIRRRPPRLPRPRPRPGHMPRP	0.101
RRIRPRPPRLPRPRPRPNLEPRP	-0.0337
RRIRRRPPRLPRPRPRPHKTPRP	0.107
RRIRMRPPRLPRPRPRPWPWPRP	-0.00171
RRIRPRPPRLPRPRPRPCYMPRP	-1.12
RRIRPRPPRLPRPRPRPNGSPRP	0.0884
RRIRGRPPRLPRPRPRPRHHPRP	2.5
RRIRVRPPRLPRPRPRPENQPRP	-0.008
RRIRRRPPRLPRPRPRPFAMPRP	0.0854
RRIRARPPRLPRPRPRPADRPRP	0.256
RRIRRRPPRLPRPRPRPFCKPRP	-0.188

Sequence	shrunken log2 fold change
RRIRRRPPRLPRPRPRPFMRPRP	0.341
RRIRARPPRLPRPRPRPVNWPRP	0.459
RRIRDRPPRLPRPRPRPCALPRP	-0.0616
RRIRHRPPRLPRPRPRPKHCPRP	-0.447
RRIRQRPPRLPRPRPRPVVGPRP	0.101
RRIRRRPPRLPRPRPRPGTMPRP	0.186
RRIRERPPRLPRPRPRPAEHPRP	-0.0237
RRIRGRPPRLPRPRPRPGRMPRP	0.727
RRIRERPPRLPRPRPRPDTPPRP	-0.562
RRIRYRPPRLPRPRPRPHDEPRP	-0.0568
RRIRHRPPRLPRPRPRPMQPPRP	0.172
RRIRRRPPRLPRPRPRPNCDPRP	0.186
RRIRRRPPRLPRPRPRPGCDPRP	0.456
RRIRTRPPRLPRPRPRPCLIPRP	-0.0324
RRIRSRPPRLPRPRPRPWYGPRP	-0.933
RRIRCRPPRLPRPRPRPDALPRP	0.0862
RRIRWRPPRLPRPRPRPEEGPRP	-0.00968
RRIRMRPPRLPRPRPRPVVPPRP	-0.107
RRIRMRPPRLPRPRPRPDLWPRP	2.21
RRIRTRPPRLPRPRPRPQMRPRP	0.472
RRIRNRPPRLPRPRPRPMDPPRP	-0.0437
RRIRMRPPRLPRPRPRPMRSPRP	1.67
RRIRQRPPRLPRPRPRPCNTPRP	-0.257
RRIRFRPPRLPRPRPRPMMIPRP	-0.018
RRIRNRPPRLPRPRPRPVLFPRP	-0.326

Sequence	shrunken log2 fold change
RRIRTRPPRLPRPRPRPMILPRP	-0.0648
RRIRSRPPRLPRPRPRPQYIPRP	-0.206
RRIRLRPPRLPRPRPRPDEPPRP	-0.0538
RRIRLRPPRLPRPRPRPIADPRP	-0.0951
RRIRARPPRLPRPRPRPYEFPRP	0.182
RRIRSRPPRLPRPRPRPMQCPRP	-0.0018
RRIRWRPPRLPRPRPRPLWNPRP	0.169
RRIRFRPPRLPRPRPRPTSDPRP	-0.206
RRIRVRPPRLPRPRPRPLYNPRP	-0.56
RRIRNRPPRLPRPRPRPLNYPRP	-0.29
RRIRYRPPRLPRPRPRPYVWPRP	-0.389
RRIRRRPPRLPRPRPRPCIEPRP	0.131
RRIRNRPPRLPRPRPRPIRAPRP	-0.0265
RRIRHRPPRLPRPRPRPGCQPRP	0.0291
RRIRRRPPRLPRPRPRPVRPPRP	0.512
RRIRRRPPRLPRPRPRPNLFPRP	0.177
RRIRDRPPRLPRPRPRPTQFPRP	0.216
RRIRQRPPRLPRPRPRPNKDPRP	-0.665
RRIRPRPPRLPRPRPRPQNWPRP	0.0202
RRIRARPPRLPRPRPRPDGQPRP	0.0234
RRIRIRPPRLPRPRPRPHKQPRP	-0.0164
RRIRERPPRLPRPRPRPHNVPRP	-0.42
RRIRARPPRLPRPRPRPINEPRP	-0.0644
RRIRCRPPRLPRPRPRPLLCPRP	-0.163
RRIRLRPPRLPRPRPRPTHVPRP	0.329

Sequence	shrunken log2 fold change
RRIRDRPPRLPRPRPRPNQAPRP	-0.0261
RRIRPRPPRLPRPRPRPPPCPRP	0.384
RRIRQRPPRLPRPRPRPKGNPRP	-0.365
RRIRCRPPRLPRPRPRPNQVPRP	0.017
RRIRERPPRLPRPRPRPSHMPRP	-0.431
RRIRQRPPRLPRPRPRPSPSPRP	-0.144
RRIRPRPPRLPRPRPRPNFVPRP	-0.0668
RRIRRRPPRLPRPRPRPWEPPRP	0.0979
RRIRGRPPRLPRPRPRPNCVPRP	0.543
RRIRWRPPRLPRPRPRPVHRPRP	0.181
RRIRWRPPRLPRPRPRPRKVPRP	0.302
RRIRPRPPRLPRPRPRPTQMPRP	0.395
RRIRGRPPRLPRPRPRPRMTPRP	1.26
RRIRQRPPRLPRPRPRPTNCPRP	-0.33
RRIRNRPPRLPRPRPRPKEGPRP	-0.0345
RRIRFRPPRLPRPRPRPERTPRP	-0.0923
RRIRPRPPRLPRPRPRPCTHPRP	-0.0646
RRIRMRPPRLPRPRPRPLGEPRP	0.317
RRIRIRPPRLPRPRPRPMKCPRP	-0.0692
RRIRLRPPRLPRPRPRPLEIPRP	-0.0425
RRIRDRPPRLPRPRPRPSSHPRP	-0.124
RRIRIRPPRLPRPRPRPFFAPRP	0.073
RRIRPRPPRLPRPRPRPNKLPRP	0.448
RRIRPRPPRLPRPRPRPHMLPRP	-0.226
RRIRYRPPRLPRPRPRPGVPPRP	0.241

Sequence	shrunken log2 fold change
RRIRGRPPRLPRPRPRPHTSPRP	-0.00444
RRIRERPPRLPRPRPRPGNNPRP	-0.426
RRIRWRPPRLPRPRPRPFHFPRP	-0.451
RRIRRRPPRLPRPRPRPVRQPRP	0.874
RRIRIRPPRLPRPRPRPPVLPRP	0.328
RRIRHRPPRLPRPRPRPDLNPRP	0.015
RRIRARPPRLPRPRPRPNIHPRP	-0.333
RRIRHRPPRLPRPRPRPGAKPRP	0.219
RRIRKRPPRLPRPRPRPLIQPRP	0.112
RRIRYRPPRLPRPRPRPQDIPRP	-0.252
RRIRGRPPRLPRPRPRPDCGPRP	0.879
RRIRPRPPRLPRPRPRPWVWPRP	0.267
RRIRRRPPRLPRPRPRPSHIPRP	-0.0708
RRIRWRPPRLPRPRPRPPLGPRP	0.416
RRIRARPPRLPRPRPRPGCDPRP	0.78
RRIRSRPPRLPRPRPRPDNPPRP	-0.0934
RRIRGRPPRLPRPRPRPSWTPRP	0.219
RRIRIRPPRLPRPRPRPYVAPRP	-0.674
RRIRFRPPRLPRPRPRPQIQPRP	-0.42
RRIRCRPPRLPRPRPRPIFYPRP	-0.32
RRIRCRPPRLPRPRPRPAGSPRP	0.432
RRIRMRPPRLPRPRPRPPHCPRP	1.68
RRIRFRPPRLPRPRPRPNKKPRP	-0.212
RRIRWRPPRLPRPRPRPWIRPRP	-0.124
RRIRVRPPRLPRPRPRPVCTPRP	0.165

Reference: the supplement of paper PMC9112550, “Optimization of the antimicrobial peptide Bac7 by deep mutational scanning” (BMC Biology, 2022)
